In experiment [1] the target is T1, TBK1 (as used in Example 6; construct not named) (Homo sapiens (Human), UniProt Q9UHD2 1-729).
T1 construct: also called HA-TBK1 (constructed, probably the one used)
T1 sequence: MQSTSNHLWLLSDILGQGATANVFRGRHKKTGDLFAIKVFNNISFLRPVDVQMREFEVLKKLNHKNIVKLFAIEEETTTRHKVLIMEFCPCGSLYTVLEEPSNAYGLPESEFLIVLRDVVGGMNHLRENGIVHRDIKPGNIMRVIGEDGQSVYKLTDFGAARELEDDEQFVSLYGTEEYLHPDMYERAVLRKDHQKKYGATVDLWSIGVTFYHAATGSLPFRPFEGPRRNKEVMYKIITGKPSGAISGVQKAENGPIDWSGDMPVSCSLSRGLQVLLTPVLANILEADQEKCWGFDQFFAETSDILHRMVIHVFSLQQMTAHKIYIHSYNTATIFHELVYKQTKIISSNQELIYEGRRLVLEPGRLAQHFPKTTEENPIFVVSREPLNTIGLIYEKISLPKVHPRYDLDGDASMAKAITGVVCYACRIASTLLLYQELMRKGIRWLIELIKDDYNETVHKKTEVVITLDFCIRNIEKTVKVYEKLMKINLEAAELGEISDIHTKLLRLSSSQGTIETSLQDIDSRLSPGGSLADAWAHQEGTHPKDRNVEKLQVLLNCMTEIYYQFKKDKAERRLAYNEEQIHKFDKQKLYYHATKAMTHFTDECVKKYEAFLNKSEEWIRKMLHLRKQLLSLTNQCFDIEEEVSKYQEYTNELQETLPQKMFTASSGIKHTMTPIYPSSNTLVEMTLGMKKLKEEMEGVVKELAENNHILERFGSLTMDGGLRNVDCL
Briefly: co-immunoprecipitation from transfected 293T cells.

Another experiment concerns the target T2, HA-γ134.5 (HSV-1, UniProt P08353 1-263).
T2 sequence: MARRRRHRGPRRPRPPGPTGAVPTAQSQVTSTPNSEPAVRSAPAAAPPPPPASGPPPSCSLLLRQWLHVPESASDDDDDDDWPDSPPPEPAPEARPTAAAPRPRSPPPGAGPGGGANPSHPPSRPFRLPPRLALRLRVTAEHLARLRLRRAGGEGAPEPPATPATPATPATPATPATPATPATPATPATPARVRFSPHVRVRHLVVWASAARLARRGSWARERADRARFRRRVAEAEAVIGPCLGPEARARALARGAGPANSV
Kind of experiment: co-immunoprecipitation from transfected 293T cells.

B1: FLAG-γ134.5 Δ106 (other)
chain: MARRRRHRGPRRPRPPGPTGAVPTAQSQVTSTPNSEPAVRSAPAAAPPPPPASGPPPSCSLLLRQWLHVPEPPGAGPGGGANPSHPPSRPFRLPPRLALRLRVTAEHLARLRLRRAGGEGAPEPPATPATPATPATPATPATPATPATPATPATPARVRFSPHVRVRHLVVWASAARLARRGSWARERADRARFRRRVAEAEAVIGPCLGPEARARALARGAGPANSV
notes: the printed limits overlap with the neighbouring deletions, so the exact junction is uncertain
With B1, the binding result in experiment [1] is “no binding”.

B2: FLAG-dN200, a truncated form of Ebola VP35 (other)
chain: NNLNSTTSLTEENFGKPDISAKDLRNIMYDHLPGFGTAFHQLVQVICKLGKDSNSLDIIHAEFQASLAEGDSPQCALIQITKRVPIFQDAAPPVIHIRSRGDIPRACQKSLRPVPPSPKIDRGWVCVFQLQDGKTLGLKI
notes: also called control protein dN200
In the case of B2, in the experiment with HA-γ134.5, the binding result is listed as “no binding”.

These data come from patent US8765444 (BOARD OF TRUSTEES OF THE UNIVERSITY OF ILLINOIS, dated 2014).
